Measured values reported in PMC6343799.

Legend:
SHR-1210-IgG1 (human) = test: SPR
[1] = biological target: human PD1 expressed on CHO-K1 stable cell line (Homo sapiens) (UniProt Q15116); test: flow cytometry on cells
[2] = biological target: cyno PD1 expressed on CHO-K1 stable cell line (Macaca fascicularis) (UniProt B0LAJ3); test: flow cytometry on cells

Kd (SHR-1210-IgG1 (human)) [nM]	EC50 [1] [nM]	EC50 [2] [nM]	Substance
32			His-tagged monomeric cynomolgus monkey PD1 ectodomain (domain or fragment)
4			His-tagged monomeric human PD1 ectodomain (from UniProt Q15116 25-170) (domain or fragment)
	2.32	6.53	SHR-1210-IgG1 (antibody)
